T1: rhesus monkey (Macaca mulatta) CD30 (rhesus monkey, UniProt P28908 19-595 (human entry))
T1 construct: also called mmCD30
T1 chain: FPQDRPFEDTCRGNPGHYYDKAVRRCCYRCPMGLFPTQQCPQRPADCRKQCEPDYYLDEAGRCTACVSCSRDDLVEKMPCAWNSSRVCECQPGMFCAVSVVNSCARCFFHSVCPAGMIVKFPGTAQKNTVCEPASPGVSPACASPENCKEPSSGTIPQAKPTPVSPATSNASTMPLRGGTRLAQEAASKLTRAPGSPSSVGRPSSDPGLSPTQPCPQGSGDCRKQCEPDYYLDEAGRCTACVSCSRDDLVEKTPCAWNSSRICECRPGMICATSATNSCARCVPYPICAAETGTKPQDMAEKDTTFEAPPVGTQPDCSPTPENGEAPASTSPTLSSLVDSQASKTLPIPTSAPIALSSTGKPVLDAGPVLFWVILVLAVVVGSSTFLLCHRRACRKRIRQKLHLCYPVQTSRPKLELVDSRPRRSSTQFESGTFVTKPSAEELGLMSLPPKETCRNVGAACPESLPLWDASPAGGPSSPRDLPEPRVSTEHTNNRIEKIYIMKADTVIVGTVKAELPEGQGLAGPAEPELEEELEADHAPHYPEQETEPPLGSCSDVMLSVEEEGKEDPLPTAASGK

T2: human CD30 (human, UniProt P28908 19-595)
T2 construct: also called huCD30; TNFRSF8
T2 sequence: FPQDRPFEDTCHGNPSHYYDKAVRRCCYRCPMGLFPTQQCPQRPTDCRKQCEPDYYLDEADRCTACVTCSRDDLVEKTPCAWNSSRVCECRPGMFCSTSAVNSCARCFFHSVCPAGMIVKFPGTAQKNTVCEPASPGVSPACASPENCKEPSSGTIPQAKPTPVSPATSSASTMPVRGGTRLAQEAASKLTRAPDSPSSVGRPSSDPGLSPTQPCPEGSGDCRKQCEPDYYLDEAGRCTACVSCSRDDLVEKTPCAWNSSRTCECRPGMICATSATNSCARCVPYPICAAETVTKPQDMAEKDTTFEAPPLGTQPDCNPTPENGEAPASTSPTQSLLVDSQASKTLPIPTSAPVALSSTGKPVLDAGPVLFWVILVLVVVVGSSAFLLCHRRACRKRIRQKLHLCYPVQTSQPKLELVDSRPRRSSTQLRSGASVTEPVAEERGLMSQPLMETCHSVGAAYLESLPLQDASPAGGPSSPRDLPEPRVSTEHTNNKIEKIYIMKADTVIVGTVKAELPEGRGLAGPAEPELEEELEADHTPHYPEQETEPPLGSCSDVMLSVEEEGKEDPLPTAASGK


Tests used:
[1] = target: T1, rhesus monkey (Macaca mulatta) CD30; assay: flow cytometry, Expi293F cells transfected with rhesus monkey CD30
Description: (§1) Cells (3×10⁴ cells/well) were incubated in polystyrene 96-well round-bottom plates (Greiner bio-one, cat. no. 650180) with serial dilutions of antibodies (ranging from 0.005 to 10 μg/mL in 3-fold dilution steps) in 100 μL staining buffer at 4° C. for 30 min. Experiments were performed in technical duplicate. After washing twice in staining buffer, cells were incubated in 50 μL secondary antibody at 4° C. for 30 min. As a secondary antibody, R-PE-conjugated goat-anti-human IgG (Jackson ImmunoResearch, UK; cat. no. 109⁻¹¹⁶-098) diluted 1:400 in staining buffer was used. Cells were washed twice in staining buffer, resuspended in 30 μL staining buffer containing 0.4% EDTA and analyzed on an iQue Screener (Intellicyt Corporation, USA). Binding curves were analyzed using non-linear regression (sigmoidal dose-response with variable slope) using GraphPad Prism V9.0.0 software (GraphPad Software, San Diego, CA, USA).

human CD30 [2] = target: T2, human CD30; assay: flow cytometry, Expi293F cells transfected with human CD30
Description: as §1

human CD30 [3] = target: T2, human CD30; assay: cell-based or functional assay
human CD30 [4] = target: T2, human CD30; assay: flow cytometry, SUP-M2 cells (ALCL), average of 3 tests
Description: (§2) Cells (3×10⁴ cells/well) were incubated in polystyrene 96-well round-bottom plates (Greiner bio-one, cat. no. 650180) with serial dilutions of antibodies (range 0.0046 to 10 μg/mL in 3-fold dilution steps) in 50 μL staining buffer at 4° C. for 30 min. After washing twice in staining buffer, cells were incubated with 50 μL secondary antibody at 4° C. for 30 min. […] Next, cells were washed twice in staining buffer, resuspended in 100 μL staining buffer supplemented with TO-PRO-3 iodide (Thermo Fisher Scientific; cat. no. T3605; 1:8000 dilution) and analyzed on a FACSCelesta flow cytometer (BD Biosciences, USA). Live cells were gated based on FSC/SSC and absence of TOPRO-3 staining. Binding curves were analyzed by non-linear regression of log-transformed data (sigmoidal dose-response with variable slope, four parameters) using GraphPad Prism V7.02 software (GraphPad Software, San Diego, CA, USA).

human CD30 [5] = target: T2, human CD30; assay: flow cytometry, KI-JK cells (ALCL), range of 3 tests
Description: as §2

human CD30 [6] = target: T2, human CD30; assay: flow cytometry, DL-40 cells (ALCL), average of 3 tests
Description: as §2

Row | Binder | EC50 (read off the curve) [1] [µg/mL] | EC50 (read off the curve) (human CD30 [2]) [µg/mL] | T-cell mediated cytotoxicity of KI-JK cells, average IC50 (human CD30 [3]) [µg/mL] | T-cell mediated cytotoxicity of L-428 cells, average IC50 (human CD30 [3]) [µg/mL] | EC50 (human CD30 [4]) [µg/mL] | EC50 (human CD30 [5]) [µg/mL] | EC50 (human CD30 [6]) [µg/mL]
1 | bsG1-huCD3-FEALxCD30-MDX060-FEAR (bispecific antibody, human IgG1, kappa, lambda, also called bsG1-huCD3xCD30-MDX060) heavy 1: not shown light 1: not shown heavy 2: QVQLQQWGAGLLKPSETLSLTCAVYGGSFSAYYWSWIRQPPGKGLEWIGDINHGGGTNYNPSLKSRVTISVDTSKNQFSLKLNSVTAADTAVYYCASLTAYWGQGSLVTVSSASTKGPSVFPLAPSSKSTSGGTAALGCLVKDYFPEPVTVSWNSGALTSGVHTFPAVLQSSGLYSLSSVVTVPSSSLGTQTYICNVNHKPSNTKVDKRVEPKSCDKTHTCPPCPAPEFEGGPSVFLFPPKPKDTLMISRTPEVTCVVVAVSHEDPEVKFNWYVDGVEVHNAKTKPREEQYNSTYRVVSVLTVLHQDWLNGKEYKCKVSNKALPAPIEKTISKAKGQPREPQVYTLPPSREEMTKNQVSLTCLVKGFYPSDIAVEWESNGQPENNYKTTPPVLDSDGSFFLYSRLTVDKSRWQQGNVFSCSVMHEALHNHYTQKSLSLSPG light 2: DIQMTQSPTSLSASVGDRVTITCRASQGISSWLTWYQQKPEKAPKSLIYAASSLQSGVPSRFSGSGSGTDFTLTISSLQPEDFATYYCQQYDSYPITFGQGTRLEIKRTVAAPSVFIFPPSDEQLKSGTASVVCLLNNFYPREAKVQWKVDNALQSGNSQESVTEQDSKDSTYSLSSTLTLSKADYEKHKVYACEVTHQGLSSPVTKSFNRGEC | ~0.2 | ~0.09 | – | – | – | – | –
2 | bsG1-huCD3-FEALxCD30-MDX060-FERR (bispecific antibody, human IgG1, kappa, lambda, Bispecific IgG1 made by controlled Fab-arm exchange; also called bsIgG1-huCD3-FEALxCD30-MDX060-FERR; bsG1-huCD3×CD30-MDX060) heavy 1: not shown light 1: not shown heavy 2: QVQLQQWGAGLLKPSETLSLTCAVYGGSFSAYYWSWIRQPPGKGLEWIGDINHGGGTNYNPSLKSRVTISVDTSKNQFSLKLNSVTAADTAVYYCASLTAYWGQGSLVTVSSASTKGPSVFPLAPSSKSTSGGTAALGCLVKDYFPEPVTVSWNSGALTSGVHTFPAVLQSSGLYSLSSVVTVPSSSLGTQTYICNVNHKPSNTKVDKRVEPKSCDKTHTCPPCPAPEFERGPSVFLFPPKPKDTLMISRTPEVTCVVVDVSHEDPEVKFNWYVDGVEVHNAKTKPREEQYNSTYRVVSVLTVLHQDWLNGKEYKCKVSNKALPAPIEKTISKAKGQPREPQVYTLPPSREEMTKNQVSLTCLVKGFYPSDIAVEWESNGQPENNYKTTPPVLDSDGSFFLYSRLTVDKSRWQQGNVFSCSVMHEALHNHYTQKSLSLSPG light 2: DIQMTQSPTSLSASVGDRVTITCRASQGISSWLTWYQQKPEKAPKSLIYAASSLQSGVPSRFSGSGSGTDFTLTISSLQPEDFATYYCQQYDSYPITFGQGTRLEIKRTVAAPSVFIFPPSDEQLKSGTASVVCLLNNFYPREAKVQWKVDNALQSGNSQESVTEQDSKDSTYSLSSTLTLSKADYEKHKVYACEVTHQGLSSPVTKSFNRGEC | – | – | 0.0015 | 0.002 | 0.167 | 0.143 to 0.258 | 0.236

From patent US20260234255A1 (Genmab, published 2026)
